Experimental data as given in patent publication US20170354706A1, “HYBRID PROTEINACEOUS MOLECULE CAPABLE OF INHIBITING AT LEAST ONE ANTIBIOTIC AND PHARMACEUTICAL COMPOSITION CONTAINING IT” (priority 2014, published 2017).
Read-outs that look alike come from different tables or passages of the source.

B1: CTX-M16: SEQ ID 2; class A β-lactamase (cefotaximase), Genbank AAK32961, 263 aa; constituent enzyme (protein, listed as Escherichia coli)
chain: QTSAVQQKLAALEKSSGGRLGVALIDTADNTQVLYRGDERFPMCSTSKVMAAAAVLKQSETQKQLLNQPVEIKPADLVNYNPIAEKHVNGTMTLAELSAAALQYSDNTAMNKLIAQLGGPGGVTAFARAIGDETFRLDRTEPTLNTAIPGDPRDTTTPRAMAQTLRQLTLGHALGETQRAQLVTWLKGNTTGAASIRAGLPTSWTAGDKTGSGGYGTTNDIAVIWPQGRAPLVLVTYFTQPQQNAESRRDVLASAARIIAEGL
B2: EreB: SEQ ID 5; erythromycin esterase, P05789.1, 419 aa (protein, listed as Escherichia coli)
chain: MRFEEWVKDKHIPFKLNHPDDNYDDFKPLRKIIGDTRVVALGENSHFIKEFFLLRHTLLRFFIEDLGFTTFAFEFGFAEGQIINNWIHGQGTDDEIGRFLKHFYYPEELKTTFLWLREYNKAAKEKITFLGIDIPRNGGSYLPNMEIVHDFFRTADKEALHIIDDAFNIAKKIDYFSTSQAALNLHELTDSEKCRLTSQLARVKVRLEAMAPIHIEKYGIDKYETILHYANGMIYLDYNIQAMSGFISGGGMQGDMGAKDKYMADSVLWHLKNPQSEQKVIVVAHNAHIQKTPILYDGFLSCLPMGQRLKNAIGDDYMSLGITSYSGHTAALYPEVDTKYGFRVDNFQLQEPNEGSVEKAISGCGVTNSFVFFRNIPEDLQSIPNMIRFDSIYMKAELEKAFDGIFQIEKSSVSEVVYE
B3: TEM36-GGGGGG-CTXM16: SEQ ID 8; fusion TEM36 and CTXM16 with flexible 6 glycine linker, 532 aa (protein)
chain: HPETLVKVKDAEDQLGARVGYIELDLNSGKILESFRPEERFPMVSTFKVLLCGAVLSRVDAGQEQLGRRIHYSQNDLVEYSPVTEKHLTDGMTVRELCSAAITMSDNTAANLLLTTIGGPKELTAFLHNMGDHVTRLDRWEPELNEAIPNDERDTTMPAAMATTLRKLLTGELLTLASRQQLIDWMEADKVAGPLLRSALPAGWFIADKSGAGERGSRGIIAALGPDGKPSRIVVIYTTGSQATMDERDRQIAEIGASLIKHWGGGGGGQTSAVQQKLAALEKSSGGRLGVALIDTADNTQVLYRGDERFPMCSTSKVMAAAAVLKQSETQKQLLNQPVEIKPADLVNYNPIAEKHVNGTMTLAELSAAALQYSDNTAMNKLIAQLGGPGGVTAFARAIGDETFRLDRTEPTLNTAIPGDPRDTTTPRAMAQTLRQLTLGHALGETQRAQLVTWLKGNTTGAASIRAGLPTSWTAGDKTGSGGYGTTNDIAVIWPQGRAPLVLVTYFTQPQQNAESRRDVLASAARIIAEGL
modifications: TEM36-GGGGGG-CTXM16
notes: fusion TEM36 and CTXM16 with flexible 6 glycine linker, 532 aa
B4: TEM-36: SEQ ID 1; clavulanic acid-resistant class A β-lactamase (IR-TEM, aminopenicillinase), 263 aa; constituent enzyme (protein, listed as Escherichia coli)
chain: HPETLVKVKDAEDQLGARVGYIELDLNSGKILESFRPEERFPMVSTFKVLLCGAVLSRVDAGQEQLGRRIHYSQNDLVEYSPVTEKHLTDGMTVRELCSAAITMSDNTAANLLLTTIGGPKELTAFLHNMGDHVTRLDRWEPELNEAIPNDERDTTMPAAMATTLRKLLTGELLTLASRQQLIDWMEADKVAGPLLRSALPAGWFIADKSGAGERGSRGIIAALGPDGKPSRIVVIYTTGSQATMDERDRQIAEIGASLIKHW

How the values were obtained:
E. coli BL21(DE3)pLysS [1] = test: MICs of beta-lactams on LB-agar for E. coli expression strains (Example 4); type: cell-based, Escherichia coli; conditions: Table 10; for MIC of the antibiotic for the empty strain BL21(DE3)pLysS: no recombinant protein; for MIC of Amoxicillin for E. coli strain expressing the protein / MIC of Augmentin for E. coli strain expressing the protein / MIC of Rocephine for E. coli strain expressing the protein: BL21(DE3)pLysS + protein, IPTG induced, LB-agar, 37° C. overnight
Procedure: The pre-cultures are then inoculated at 1/40th in 5 ml of LB+50 μg/ml Kanamycin medium and when the OD600 reaches a value of 0.6 (about 2 hours), the production of protein is induced by the addition of final IPTG 1 mM and continues for 1.5 hours at 37° C. with stirring at 200 rpm.
The dishes were incubated at 37° C. overnight and the results were recorded the following day. The MICs correspond to the lowest concentration of antibiotic at which the highest inoculum doesn't grow.

E. coli BL21(DE3)pLysS [2] = test: MICs of beta-lactams and macrolide on LB-agar for E. coli expression strains (Example 6); type: cell-based, Escherichia coli; conditions: Table 14
Procedure: The pre-cultures are then inoculated at 1/40th in 5 ml of LB+50 μg/ml Kanamycin medium and when the OD600 nm reaches a value of 0.6 (about 2 hours), the production of protein is induced by the addition of 1 mM final IPTG and continued for 1.5 hours at 37° C. with stirring at 200 rpm.
The dishes are incubated at 37° C. over night and the results are recorded the next day. The MICs correspond to the lowest concentration of antibiotic at which the highest inoculum no longer grows.

[3] = cited from earlier work
[4] = pH-STAT beta-lactam hydrolysis assay, substrate amoxicillin; type: biochemical; conditions: 37° C., pH=7.0
Procedure: (§1) The purified proteins were tested on different beta-lactams (amoxicillin (Apollo Scientific), Augmentin® (GlaxoSmithKline) and Ceftriaxone (Rocéphine®, Roche)). The assays are carried out at pH-STAT (Titrino 2.5, Metrohm) in a reaction volume of 25 ml at 37° C. and pH=7.0. The substrates are prepared at 4 g/l in a 0.3 mM Tris buffer, 150 mM NaCl. The enzyme hydrolysis of the beta-lactam nuclei releases an acid and induces a drop in the pH. The principle of the assay is to compensate for the acidification by the addition of 0.1 N sodium hydroxide so as to remain at pH=7.0. In these conditions, one unit corresponds to 1 μmole of sodium hydroxide added per minute, that is, one μmole of beta-lactam hydrolysed per minute. Table 3 below lists the specific activities measured for each protein on the three substrates (mean of 6 replicates).

[5] = pH-STAT beta-lactam hydrolysis assay, substrate Augmentin; type: biochemical; conditions: 37° C., pH=7.0
Procedure: as §1

[6] = pH-STAT beta-lactam hydrolysis assay, substrate ceftriaxone; type: biochemical; conditions: pH=7.0; for Specific activity, substrate Ceftriaxone: 37° C.
Procedure: as §1
The purified proteins were tested on different antibiotics: Ceftriaxone (RocéphineED, Roche) for the beta-lactams and kanamycin for the Aminoglycosides. The assays on ceftriaxone were carried out at pH-STAT (Titrino 2.5, Metrohm) in a reaction volume of 25 ml at 37° C. and pH=7.0. The substrates are prepared at 4 g/l in a 0.3 mM Tris buffer, 150 mM NaCl. The enzyme hydrolysis of the beta-lactam nuclei releases an acid and results in a drop in the pH. The principle of the assay is to compensate this acidification by the addition of 0.1 N sodium hydroxide so as to remain at pH=7.0. In these conditions, one unit corresponds to 1 μmol of sodium hydroxide added per minute, that is one μmol of beta-lactam hydrolyzed per minute.

[7] = Acetyl-transferase indirect colorimetric assay (acetyl-CoA, DTNB); type: biochemical; conditions: Table 12; 500 μM Kanamycin, 500 μM AcetylCoA, 250 μM DTNB; 1 unit = one nanomole of TNB released per minute at 37° C.; n=6
Procedure: The activity of acety-transferase is measured by an indirect colorimetric assay with acetyl-CoA (Sigma-Aldrich) as acetyl group donor, Kanamycin as acceptor and Elleman reagent (DTNB, Sigma-Aldrich) to titrate the CoEnzymeA reduced (—SH) molecules released during the enzyme reaction [Ref]. The reaction takes place on a microtitration plate with increasing quantities of purified enzymes, in a final volume of 200 μl and with concentrations of 500 μM Kanamycin, 500 μM AcetylCoA and 250 μM DTNB. In these experimental conditions, the ion TNB^2 absorbs at 412 nm with an ε(λ=412 nm) apparent 19 000 M^−1.well^−1 (well of a 96 well plate filled with 200 μl) and 1 unit corresponds to one nanomole of TNB^2 released per minute at 37° C.

[8] = Table 3, proteins produced in Pichia pastoris, substrate 4 g/l, 1 U = 1 μmole beta-lactam hydrolysed per minute, mean of 6 replicates
[9] = Table 5 (Example 2), proteins produced in Pichia pastoris
[10] = Table 7 (Example 3), proteins produced in Pichia pastoris
[11] = Table 9, proteins produced in Escherichia coli BL21(DE3) pLysS (periplasm, non-glycosylated)
[12] = Table 3, proteins produced in Pichia pastoris, substrate 4 g/l, mean of 6 replicates
[13] = Table 9, proteins produced in Escherichia coli BL21(DE3) pLysS
[14] = BL21(DE3)pLysS + protein, IPTG induced, LB-agar, 37° C. over night

Molecule	Specific activity, substrate Amoxicillin [4, 8] [U/mg]	Specific activity, substrate Amoxicillin [4, 9] [U/mg]	Specific activity, substrate Amoxicillin [4, 10] [U/mg]	Specific activity, substrate Amoxicillin [4, 11] [U/mg]	Specific activity, substrate Augmentin [5, 12] [U/mg]	Specific activity, substrate Augmentin [5, 9] [U/mg]	Specific activity, substrate Augmentin [5, 10] [U/mg]	Specific activity, substrate Augmentin [5, 13] [U/mg]	Specific activity, substrate Ceftriaxone [6, 12] [U/mg]	Specific activity, substrate Ceftriaxone [6, 9] [U/mg]	Specific activity, substrate Ceftriaxone [6, 10] [U/mg]	Specific activity, substrate Ceftriaxone [6, 13] [U/mg]	further results
CC1(C)S[C@@H]2[C@H](NC(=O)[C@H](N)c3ccc(O)cc3)C(=O)N2[C@H]1C(=O)O [Amoxicillin, amoxicillin, reference compound]	–	–	–	–	–	–	–	–	–	–	–	–	MIC of the antibiotic for the empty strain BL21(DE3)pLysS (E. coli BL21(DE3)pLysS [1]): <0.5 μg/ml; MIC of the antibiotic for the empty strain BL21(DE3)pLysS (E. coli BL21(DE3)pLysS [2]; empty strain, no recombinant protein): <2 μg/ml; Patients with acute diarrhoea induced by antibiotics ([3]; patients receiving antibiotic therapy): 5-10%
CO/N=C(\C(=O)N[C@@H]1C(=O)N2C(C(=O)O)=C(CSc3nc(=O)c(O)nn3C)CS[C@H]12)c1csc(N)n1 [Rocephine, Ceftriaxone, reference compound]	–	–	–	–	–	–	–	–	–	–	–	–	MIC of the antibiotic for the empty strain BL21(DE3)pLysS (E. coli BL21(DE3)pLysS [1]): <0.5 μg/ml
CC[C@H]1OC(=O)[C@H](C)[C@@H](O[C@H]2C[C@@](C)(OC)[C@@H](O)[C@H](C)O2)[C@H](C)[C@@H](O[C@@H]2O[C@H](C)C[C@H](N(C)C)[C@H]2O)[C@](C)(O)C[C@@H](C)CN(C)[C@H](C)[C@@H](O)[C@]1(C)O [azithromycin]	–	–	–	–	–	–	–	–	–	–	–	–	Patients with acute diarrhoea induced by antibiotics ([3]; human, in vivo): 2-5%
B1	31 ± 2	31 ± 2	31 ± 2	21 ± 1	0	0	0	0	306 ± 44	306 ± 44	306 ± 44	158 ± 14	Specific activity, substrate Cetriaxone ([6]; Table 12, pH-STAT 37° C., AAC and fusion from E. coli, CTX-M16 from P. pastoris, n=6): 336 ± 5 U/mg; Specific activity, substrate Kanamycin [7]: 0 U/mg; MIC of Amoxicillin for E. coli strain expressing the protein (E. coli BL21(DE3)pLysS [1]): >1024 µg/mL; MIC of Augmentin for E. coli strain expressing the protein (E. coli BL21(DE3)pLysS [1]): 4 µg/mL; MIC of Rocephine for E. coli strain expressing the protein (E. coli BL21(DE3)pLysS [1]): 512 µg/mL
B2	–	–	–	–	–	–	–	–	–	–	–	–	MIC of Amoxicillin for E. coli strain expressing the protein (E. coli BL21(DE3)pLysS [2]; [14]): <2 µg/mL; MIC of Augmentin for E. coli strain expressing the protein (E. coli BL21(DE3)pLysS [2]; [14]): <2 µg/mL; MIC of Erythromycin for E. coli strain expressing the protein (E. coli BL21(DE3)pLysS [2]; [14]): >1024 µg/mL
B3	695 ± 98	890 ± 83	890 ± 176	633 ± 99	42 ± 33	42 ± 14	34 ± 6	24 ± 5	114 ± 44	123 ± 35	141 ± 55	138 ± 32	–
B4	816 ± 90	816 ± 90	816 ± 90	3593 ± 87	97 ± 74	97 ± 74	97 ± 74	385 ± 31	0	0	0	1 ± 1	MIC of Amoxicillin for E. coli strain expressing the protein (E. coli BL21(DE3)pLysS [1]): >1024 µg/mL; MIC of Augmentin for E. coli strain expressing the protein (E. coli BL21(DE3)pLysS [1]): 512 µg/mL; MIC of Rocephine for E. coli strain expressing the protein (E. coli BL21(DE3)pLysS [1]): <0.5 µg/mL; MIC of Amoxicillin for E. coli strain expressing the protein (E. coli BL21(DE3)pLysS [2]; [14]): >2048 µg/mL; MIC of Augmentin for E. coli strain expressing the protein (E. coli BL21(DE3)pLysS [2]; [14]): 512 µg/mL
